“And” between values parts separate entries of the source, which are not always exact repeats. Equal entries are not always repeated.
Experiments:
Test in all cases: cell-based or functional assay
[1] = biological target: recombinant human IL-23 (human) (UniProt P29460)
[2] = biological target: natural human IL-23 from activated THP-1 cells (human) (UniProt P29460)
recombinant human IL-23 = biological target: T1, recombinant human IL-23 (human, UniProt P29460 23-328)
T1 sequence 1: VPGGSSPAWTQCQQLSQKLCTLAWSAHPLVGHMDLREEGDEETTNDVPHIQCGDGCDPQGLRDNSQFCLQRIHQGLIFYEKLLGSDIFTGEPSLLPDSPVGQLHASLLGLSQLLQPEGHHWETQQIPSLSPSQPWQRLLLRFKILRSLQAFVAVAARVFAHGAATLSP
T1 sequence 2: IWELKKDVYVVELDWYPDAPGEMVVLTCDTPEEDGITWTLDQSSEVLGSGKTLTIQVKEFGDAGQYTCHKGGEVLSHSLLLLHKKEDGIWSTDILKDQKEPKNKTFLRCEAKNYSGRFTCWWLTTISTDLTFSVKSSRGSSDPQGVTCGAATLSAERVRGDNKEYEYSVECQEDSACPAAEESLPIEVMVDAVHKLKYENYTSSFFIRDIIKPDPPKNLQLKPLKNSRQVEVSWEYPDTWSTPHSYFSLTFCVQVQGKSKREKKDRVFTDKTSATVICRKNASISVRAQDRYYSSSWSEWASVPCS

B1: Antibody C1273 (disclosed in WO 2007/005955) (antibody, from another filing, V domains shown)
VH: DVNLVESGGGLVKPGGSLKLSCAASGFTFSSYTMSWVRQTPEKRLEWVATISSGGTYTYYPDSVKGRFTISRDNAKNTLYLQMSSLKSEDTAMFYCTRDNHAYDRGPFFDYWGQGATLTVSS
VL: DIVMSQSPSSLVVSVGEKVTMSCKSSQNLFYRSNQKNHLAWYQQKPGQSPTLLIYWTSTRESGVPDRFTGSGSGTDFTLTISRVKAEDLAVYYCQQYYSYPPTFGGGTKLEIK
IC50, inhibition of IL-23 induced STAT3 phosphorylation in human DB cells [1]: 0.163 nM and 0.438 nM
IC50, inhibition of IL-17 production from IL-23 stimulated mouse splenocytes [2]: 0.093 nM and 0.044 nM

B2: Antibody 6H12 (disclosed in WO 2007/027714) (antibody, from another filing, V domains shown)
VH: EVHLQQSGPELVKPGASVKMSCKASGYTFNRYLIHWVKQKPGQGLEWIGYINPNNDGTNYNEKFKGKATLTSDKSSSTAYMELSSLTSEDSAVYYCAANWDQAYWGQGTLVTVSA
VL: DIVMTQSPATLSVTPGDRVSLSCRASQSISDYLHWYQQKSHESPRLLIKYTSQSISGIPSRFSGSGSGSDFTLSINSVEPEDVGVYYCQNGHSFPFTFGSGTKLEIKR
IC50, inhibition of IL-17 production from IL-23 stimulated mouse splenocytes (recombinant human IL-23): 1.6 nM and 0.806 nM and 1.3 nM
